We go through one molecule from publication doi:10.1101/2024.09.24.614852.

The target in this data set is tau 2N4R wild type (tau-441) (human, UniProt P10636-8 1-441). Put plainly: EMSA.

B1: 24-bp duplex (dsDNA)
DNA 1: TCGACACGGAAATGTTGAATACTA
DNA 2: TAGTATTCAACATTTCCGTGTCGA
Turning to B1, the binding result is “binds”.
